Patent US20120316071A1 (published 2012)
Like-named read-outs stand apart in the source and are kept apart here.

Tests used:
[1] = target: T1, Recombinant Human DLL4 (delta-like protein 4) (human, UniProt Q9NR61 27-524); assay: ELISA on plate-coated DLL4, 100 nM Fab, signal minus noise
T1 construct: Bought recombinant protein (R&D Systems Cat#1506-D4/CF); also called rHuman DLL4; Delta-like 4

[2] = target: T1, Recombinant Human DLL4 (delta-like …); assay: ECL (MSD) multispot binding assay, DLL4 immobilised, 10 nM Fab, DLL4 signal over blank
[3] = target: T2, Recombinant Human DLL4 (delta-like protein 4) (human, UniProt Q9NR61 27-529); assay: ELISA on coated DLL4, 100 nM Fab
T2 construct: Bought recombinant human DLL4 (R&D Systems Cat#1506-D4/CF), coated on the plate; also called rHuman DLL4; Delta-like 4

[4] = target: T2, Recombinant Human DLL4 (delta-like …); assay: 96-well plate ECL (MSD) binding assay on coated DLL4, 10 nM Fab
[5] = target: T2, Recombinant Human DLL4 (delta-like …); assay: ELISA on coated DLL4, 100 nM Fab; remark: listed apart in the source
[6] = target: T2, Recombinant Human DLL4 (delta-like …); assay: 96-well plate ECL (MSD) binding assay on coated DLL4, 10 nM Fab; remark: listed apart in the source

| Binder | ELISA (Signal-Noise) [1] | Signal/Noise [10 nM Fab] [2] | ELISA signal [5] | ECL signal [6] | further results |
| --- | --- | --- | --- | --- | --- |
| Fab VH1-46_IGHD6-6*01_IGHJ1*01 S102A/S103P/S104F/H111F P53A & L6_IGKJ1*01 (Fab, V domains shown, Fab made in E. coli: CH1 with His6/Flag tags from Plasmid A, kappa constant region from Plasmid C; also called APFF P53A) VH: QVQLVQSGAEVKKPGASVKVSCKASGYTFTSYYMHWVRQAPGQGLEWMGIINASGGSTSYAQKFQGRVTMTRDTSTSTVYMELSSLRSEDTAVYYCAREEYAPFSAEYFQFWGQGTLVTVSS VL: not shown | 0.41 | 462 | – | – | – |
| Fab VH1-46_IGHD6-6*01_IGHJ1*01 S102A/S103P/S104F/H111F/I51Y/N52L/S54T/G56H (APFF YLTH) & L6_IGKJ1*01 (Fab, V domains shown, Fab made in E. coli; CH1 with tags and kappa CL are not included) VH: QVQLVQSGAEVKKPGASVKVSCKASGYTFTSYYMHWVRQAPGQGLEWMGIYLPTGHSTSYAQKFQGRVTMTRDTSTSTVYMELSSLRSEDTAVYYCAREEYAPFSAEYFQFWGQGTLVTVSS VL: not shown | – | – | – | – | ELISA signal [3]: 0.513; ECL signal [4]: 155000 |
| Fab VH1-46_IGHD6-6*01_IGHJ1*01 S102A/S103P/S104F/H111F S54A/S59N & L6_IGKJ1*01 (Fab, V domains shown, Fab made in E. coli; CH1 with tags and kappa CL are not included; also called APFF S54A/S59N) VH: QVQLVQSGAEVKKPGASVKVSCKASGYTFTSYYMHWVRQAPGQGLEWMGIINPAGGSTNYAQKFQGRVTMTRDTSTSTVYMELSSLRSEDTAVYYCAREEYAPFSAEYFQFWGQGTLVTVSS VL: not shown | – | – | 0.1 | 17300 | – |
| Fab VH1-46_IGHD6-6*01_IGHJ1*01 S102A/S103P/S104F/H111F S54E & L6_IGKJ1*01 (Fab, V domains shown, Fab made in E. coli; CH1 with tags and kappa CL are not included; also called APFF S54E) VH: QVQLVQSGAEVKKPGASVKVSCKASGYTFTSYYMHWVRQAPGQGLEWMGIINPEGGSTSYAQKFQGRVTMTRDTSTSTVYMELSSLRSEDTAVYYCAREEYAPFSAEYFQFWGQGTLVTVSS VL: not shown | – | – | 0.04 | 36800 | – |
| Fab VH1-46_IGHD6-6*01_IGHJ1*01 S102A/S103P/S104F/H111F/N52L/S54T/G56H (APFF LTH) & L6_IGKJ1*01 (Fab, V domains shown, Fab made in E. coli; CH1 with tags and kappa CL are not included; also called H:APFF LTH & L:wt) VH: QVQLVQSGAEVKKPGASVKVSCKASGYTFTSYYMHWVRQAPGQGLEWMGIILPTGHSTSYAQKFQGRVTMTRDTSTSTVYMELSSLRSEDTAVYYCAREEYAPFSAEYFQFWGQGTLVTVSS VL: not shown | – | – | – | – | ELISA signal [3]: 1.1; ECL signal [4]: 165000 |
| Fab VH1-46_IGHD6-6*01_IGHJ1*01 S102A/S103P/S104F/H111F S54G & L6_IGKJ1*01 (Fab, V domains shown, Fab made in E. coli; CH1 with tags and kappa CL are not included; also called APFF S54G) VH: QVQLVQSGAEVKKPGASVKVSCKASGYTFTSYYMHWVRQAPGQGLEWMGIINPGGGSTSYAQKFQGRVTMTRDTSTSTVYMELSSLRSEDTAVYYCAREEYAPFSAEYFQFWGQGTLVTVSS VL: not shown | – | – | 0.06 | 47000 | – |
| Fab VH1-46_IGHD6-6*01_IGHJ1*01 S102A/S103P/S104F/H111F/I51W/N52L/S54T/G56H (APFF WLTH) & L6_IGKJ1*01 (Fab, V domains shown, Fab made in E. coli; CH1 with tags and kappa CL are not included) VH: QVQLVQSGAEVKKPGASVKVSCKASGYTFTSYYMHWVRQAPGQGLEWMGIWLPTGHSTSYAQKFQGRVTMTRDTSTSTVYMELSSLRSEDTAVYYCAREEYAPFSAEYFQFWGQGTLVTVSS VL: not shown | – | – | – | – | ELISA signal [3]: 0.088; ECL signal [4]: 126000 |
| Fab VH1-46_IGHD6-6*01_IGHJ1*01 S102A/S103P/S104F/H111F S54N & L6_IGKJ1*01 (Fab, V domains shown, Fab made in E. coli; CH1 with tags and kappa CL are not included; also called APFF S54N) VH: QVQLVQSGAEVKKPGASVKVSCKASGYTFTSYYMHWVRQAPGQGLEWMGIINPNGGSTSYAQKFQGRVTMTRDTSTSTVYMELSSLRSEDTAVYYCAREEYAPFSAEYFQFWGQGTLVTVSS VL: not shown | – | – | 0.02 | 31700 | – |
| Fab VH1-46_IGHD6-6*01_IGHJ1*01 S102A/S103P/S104F/H111F N52A & L6_IGKJ1*01 (Fab, V domains shown, Fab made in E. coli: CH1 with His6/Flag tags from Plasmid A, kappa constant region from Plasmid C; also called APFF N52A) VH: QVQLVQSGAEVKKPGASVKVSCKASGYTFTSYYMHWVRQAPGQGLEWMGIIAPSGGSTSYAQKFQGRVTMTRDTSTSTVYMELSSLRSEDTAVYYCAREEYAPFSAEYFQFWGQGTLVTVSS VL: not shown | 0.6 | 721 | – | – | – |
| Fab VH1-46_IGHD6-6*01_IGHJ1*01 S102A/S103P/S104F/H111F I51A & L6_IGKJ1*01 (Fab, V domains shown, Fab made in E. coli: CH1 with His6/Flag tags from Plasmid A, kappa constant region from Plasmid C; also called APFF I51A) VH: QVQLVQSGAEVKKPGASVKVSCKASGYTFTSYYMHWVRQAPGQGLEWMGIANPSGGSTSYAQKFQGRVTMTRDTSTSTVYMELSSLRSEDTAVYYCAREEYAPFSAEYFQFWGQGTLVTVSS VL: not shown | 0.49 | 637 | – | – | – |

Continued, in another order:

| ELISA (Signal-Noise) [1] | Signal/Noise [10 nM Fab] [2] | ELISA signal [5] | ECL signal [6] | Binder | further results |
| --- | --- | --- | --- | --- | --- |
| 0.02 | 17.1 | – | – | Fab VH1-46_IGHD6-6*01_IGHJ1*01 S102A/S103P/S104F/H111F S59A & L6_IGKJ1*01 (Fab, V domains shown, Fab made in E. coli: CH1 with His6/Flag tags from Plasmid A, kappa constant region from Plasmid C; also called APFF S59A) VH: QVQLVQSGAEVKKPGASVKVSCKASGYTFTSYYMHWVRQAPGQGLEWMGIINPSGGSTAYAQKFQGRVTMTRDTSTSTVYMELSSLRSEDTAVYYCAREEYAPFSAEYFQFWGQGTLVTVSS VL: not shown | – |
| – | – | 0 | 10100 | Fab VH1-46_IGHD6-6*01_IGHJ1*01 S102A/S103P/S104F/H111F S54P & L6_IGKJ1*01 (Fab, V domains shown, Fab made in E. coli; CH1 with tags and kappa CL are not included; also called APFF S54P) VH: QVQLVQSGAEVKKPGASVKVSCKASGYTFTSYYMHWVRQAPGQGLEWMGIINPPGGSTSYAQKFQGRVTMTRDTSTSTVYMELSSLRSEDTAVYYCAREEYAPFSAEYFQFWGQGTLVTVSS VL: not shown | – |
| – | – | 0.02 | 26300 | Fab VH1-46_IGHD6-6*01_IGHJ1*01 S102A/S103P/S104F/H111F S54R & L6_IGKJ1*01 (Fab, V domains shown, Fab made in E. coli; CH1 with tags and kappa CL are not included; also called APFF S54R) VH: QVQLVQSGAEVKKPGASVKVSCKASGYTFTSYYMHWVRQAPGQGLEWMGIINPRGGSTSYAQKFQGRVTMTRDTSTSTVYMELSSLRSEDTAVYYCAREEYAPFSAEYFQFWGQGTLVTVSS VL: not shown | – |
